This is an account of results in publication PMC4094278, “The Dictyostelium discoideum RACK1 orthologue has roles in growth and development” (Cell Communication and Signaling : CCS, 2014).

The data set concerns the molecule itself. Briefly: cross-linking; 5-10 μg/100 μl recombinant protein in 1 x PBS, pH 7.4, room temperature, 0.001% glutaraldehyde, 5, 10 and 20 min, stopped with 0.1 M glycine; SDS-PAGE and western blot with anti-DdRACK1 antibodies; dimers and oligomers also seen without glutaraldehyde.

B1: recombinant DdRACK1 full length protein cleaved from the GST part (natural protein, D. discoideum, UniProt P46800 1-329, looked up)
chain: MEQQKAPQVTYLEVGSLVGHNGFVTSIAVSPENPDTIISSSRDKTVMVWQLTPTDATSPGKAHRSLKGHSHFVQDVVISHDGQFALSGSWDNTLRLWDITKGVSTRLFKGHTQDVMSVAFSSDNRQIISGSRDATIKVWNTLGECKFTLEGPEAHQDWVSCIRFSPNTPTIVSGSWDNKVKIWDIKSFKCNHTLTDHTGYVNTVTISPDGSLCASGGKDTFACLWELSSGKPLYKLEARNTINALAFSPNKYWLSAATDDKIIIWDLLTKQVLAEIVPEVKEQAFDSKKKKESKPKAPACLSLAWSADGSVLYAGYNDGLIRVYKSSSQ
notes: D. discoideum RACK1 (GpbB), 329 amino acids; Cloned in pGEX-4T-1; cleaved with thrombin; also called GpbB; D. discoideum RACK1; source: E. coli XL1 Blue, purified (GST-Sepharose, thrombin cleavage, DE-52 anion exchange)
For the protein B1, the binding result was “binds”.
